How the values were obtained:
[1] = target: TSP-1 protein expressed by PMA-differentiated THP-1 macrophage-like cells, P07996; assay: cell-based or functional assay
[2] = target: TSP-1 protein (novoprotein, Catalog No. CU45), P07996; assay: competition ELISA, TSP-1 coated, CD36-Fc 0.25 µg/mL as competitor, peptide 100 µM
[3] = target: TSP-1 protein (novoprotein, Catalog No. CU45), P07996; assay: competition ELISA, TSP-1 coated, CD36-Fc as competitor, peptide 0-100 µM

Chain of TSP-1 protein (novoprotein, Catalog No. CU45), P07996 (P07996 19-1170 limits assumed): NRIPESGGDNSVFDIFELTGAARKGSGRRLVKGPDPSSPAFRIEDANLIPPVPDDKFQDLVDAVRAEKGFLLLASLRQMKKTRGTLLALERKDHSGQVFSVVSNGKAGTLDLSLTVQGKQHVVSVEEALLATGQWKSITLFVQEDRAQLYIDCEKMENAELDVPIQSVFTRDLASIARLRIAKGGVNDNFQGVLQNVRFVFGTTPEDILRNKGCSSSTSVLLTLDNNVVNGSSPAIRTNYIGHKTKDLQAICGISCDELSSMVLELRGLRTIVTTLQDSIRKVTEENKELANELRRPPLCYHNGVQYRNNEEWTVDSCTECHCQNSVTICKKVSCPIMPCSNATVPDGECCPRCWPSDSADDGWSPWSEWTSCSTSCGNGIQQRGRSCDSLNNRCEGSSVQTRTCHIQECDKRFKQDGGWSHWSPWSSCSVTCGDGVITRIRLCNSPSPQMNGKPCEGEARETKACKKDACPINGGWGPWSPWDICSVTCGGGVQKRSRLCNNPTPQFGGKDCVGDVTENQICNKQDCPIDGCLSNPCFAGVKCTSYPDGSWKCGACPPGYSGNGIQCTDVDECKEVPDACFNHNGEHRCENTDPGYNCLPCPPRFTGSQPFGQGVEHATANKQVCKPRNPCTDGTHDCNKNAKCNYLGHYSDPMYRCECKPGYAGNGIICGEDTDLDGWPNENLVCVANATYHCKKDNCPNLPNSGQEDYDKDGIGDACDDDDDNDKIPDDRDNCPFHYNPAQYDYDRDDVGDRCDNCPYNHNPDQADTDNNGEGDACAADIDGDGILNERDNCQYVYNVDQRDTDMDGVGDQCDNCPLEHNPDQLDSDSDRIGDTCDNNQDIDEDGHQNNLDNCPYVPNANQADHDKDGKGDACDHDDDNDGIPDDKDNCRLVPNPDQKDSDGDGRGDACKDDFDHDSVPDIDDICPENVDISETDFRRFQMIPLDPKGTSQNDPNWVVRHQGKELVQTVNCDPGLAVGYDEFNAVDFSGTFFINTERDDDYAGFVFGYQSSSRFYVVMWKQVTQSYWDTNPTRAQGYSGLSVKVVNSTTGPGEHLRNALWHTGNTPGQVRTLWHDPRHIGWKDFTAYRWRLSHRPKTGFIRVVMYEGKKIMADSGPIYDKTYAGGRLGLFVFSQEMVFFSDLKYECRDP
Chain of TSP-1 protein expressed by PMA-differentiated THP-1 macrophage-like cells, P07996 (P07996 19-1170 limits assumed): as above

Row | Mean (relative fluorescence intensity), 293-TGFβ Res reporter cells (ratio to negative control) [1] | Blocking rate (Mean, %) [2] | IC50 [3] | Binder
1 | 0.65 | 52% | 3.62 µM | TCDAEDNC (modifications not checked) [SEQ ID NO: 43]
2 | 0.43 | 52.9% | 6.71 µM | TCDAEDNC (modifications not checked) [SEQ ID NO: 44]
